Data: paper PMC11669160, “Engineering an αCD206-synNotch Receptor: Insights into the Development of Novel Synthetic Receptors” (ACS Synthetic Biology, 2024)

Target: T1, mouse CD206 extracellular domain fused to a myc tag and the PDGFRβ transmembrane domain, displayed on MetBo2 … (Mus musculus (cDNA of IL-4 treated …))
T1 construct: transmembrane domain of the human platelet-derived growth factor receptor (PDGFRβ); the methods name only myc; also called CD206 ECD; CD206 ECD construct; source: MetBo2 cells, transiently transfected (CMV promoter), on cells
T1 chain: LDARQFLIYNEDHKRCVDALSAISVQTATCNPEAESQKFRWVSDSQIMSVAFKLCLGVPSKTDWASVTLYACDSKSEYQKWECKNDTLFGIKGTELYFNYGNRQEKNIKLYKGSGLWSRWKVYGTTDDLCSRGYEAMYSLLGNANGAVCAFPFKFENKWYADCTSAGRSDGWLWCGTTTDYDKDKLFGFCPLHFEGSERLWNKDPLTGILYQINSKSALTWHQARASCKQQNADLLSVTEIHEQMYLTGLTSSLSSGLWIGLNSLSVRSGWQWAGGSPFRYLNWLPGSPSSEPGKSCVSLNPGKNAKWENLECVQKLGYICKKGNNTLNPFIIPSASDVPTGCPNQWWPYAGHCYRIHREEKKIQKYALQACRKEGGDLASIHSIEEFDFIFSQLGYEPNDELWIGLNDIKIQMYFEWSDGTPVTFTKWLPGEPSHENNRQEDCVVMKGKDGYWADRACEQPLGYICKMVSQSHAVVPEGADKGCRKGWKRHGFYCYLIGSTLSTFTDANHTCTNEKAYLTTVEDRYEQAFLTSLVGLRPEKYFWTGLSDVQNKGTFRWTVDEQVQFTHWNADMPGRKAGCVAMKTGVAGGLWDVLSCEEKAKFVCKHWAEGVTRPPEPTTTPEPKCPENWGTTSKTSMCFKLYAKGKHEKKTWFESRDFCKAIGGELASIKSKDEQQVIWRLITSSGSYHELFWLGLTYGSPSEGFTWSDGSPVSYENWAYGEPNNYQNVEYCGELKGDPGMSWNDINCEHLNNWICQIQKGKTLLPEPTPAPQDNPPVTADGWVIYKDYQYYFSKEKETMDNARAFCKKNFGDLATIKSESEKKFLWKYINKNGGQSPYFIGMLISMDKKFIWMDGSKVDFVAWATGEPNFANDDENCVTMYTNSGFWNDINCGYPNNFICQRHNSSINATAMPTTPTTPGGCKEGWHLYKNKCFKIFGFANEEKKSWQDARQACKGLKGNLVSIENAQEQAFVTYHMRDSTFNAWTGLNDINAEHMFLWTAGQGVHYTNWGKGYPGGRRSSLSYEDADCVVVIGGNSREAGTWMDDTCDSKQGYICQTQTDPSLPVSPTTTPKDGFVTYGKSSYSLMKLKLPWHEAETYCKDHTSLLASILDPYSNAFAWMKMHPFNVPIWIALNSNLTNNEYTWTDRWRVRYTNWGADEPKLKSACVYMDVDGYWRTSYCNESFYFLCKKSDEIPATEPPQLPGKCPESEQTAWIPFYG
Assay: immunostaining of cells or tissue; supernatant of HEK293FT cells with αCD206-mNeonGreen chromobody put on MetBo2 cells transiently expressing the CD206 ECD construct; 4 °C overnight in the dark; fluorescence microscopy (methods: fixed cells; legend: live cells)
Conditions: partners not purified

B1: αCD206-mNeonGreen chromobody (αCD206 VHH fused to mNeonGreen) (VHH)
VHH: QVQLQESGGGLVQPGGSLRLSCAASGNIFSINAIGWYRQAPGKQRELVATITLSGSTNYADSVKGRFSISRDNAKNTVYLQMNSLKPEDTAVYYCNANTYSDSDVYGYWGQGTQVTVSS
notes: also called αCD206 chromobodies; αCD206 nanobody; source: HEK293FT, transiently transfected; cell-free culture supernatant used unpurified
binding result: binds
